For test [1], the target named is soluble Fas L (recombinant FasL).
Test [2] addresses FasL expressed by anti-CD3-activated Jurkat cells.
The target is the same in test [3]. This is another data set of the same source.
Test [4] deals with Jurkat cells. Nature of the test: anti-CD3 induced Jurkat apoptosis (Annexin V/PI, FACS). Type of test: cell-based. The following applies: Example 12; Jurkat + antiCD3 + 10 μM DEVD-cmk. On the procedure:
Non-tissue treated 24 well plates (Decton Dickinson, Mansfield, Mass.) were coated with 0.5 ml of 1 ug/ml anti-CD3 (Farmingen) in PBS for 90 min at 37° C. The plate was washed once with PBS.
Cells were incubated overnight at 37° C. incubator and cells were then stained by Annexin V and PI staining. Apotosis was analyzed by flow cytometer (FACS). Cell apoptosis was indicated by positive staining with Annexin V.

The subject of test [5] is Jurkat cells. In words: Recombinant FasL induced Jurkat cell apoptosis (Annexin V/PI, FACS). Type of test: cell-based. The note with it: Jurkat + inducer alone 200 ng/ml, overnight. As for the experimental part:
One milliliter of 1×10^6 cell/ml was added into each well of 24 well tissue culture plate and treated with following reagents: soluble Fas L (200 ng), Fas L plus 1 ug mFLINT, Fas L plus 1 ug OPG2-Fc, Trail (200 ng), Trail plus 1 ug mFLINT. Cells were incubated overnight at 37° C. and then stained with Annexin V and PI.

Test [6] deals with LIGHT. Nature of the test: LIGHT cell surface binding assay by flow cytometry. As for the experimental part: To confirm the dot blot binding between LIGHT and mFLINT, 293 cells were transiently transfected with LIGHT expression construct overnight. On the next day, cells were detached and incubated with mFLINT-Flag on ice. […] As a control we used vector transfected cells. To make sure that the binding was specific, a competition assay with 10 fold access of untagged mFLINT was performed.
More particularly, 6 well dishes of cells were transfected as above. Both vector and m-LIGHT expressing cells were provided. Cells were detached from the plates by vigorous pipetting with a P100 Pipettor. Then, in PBS/BSA, 0.1%, cells were exposed to one of the following combinations, set forth in a-d.
a. GST/flag, mFLINT/flag, or HVEM at 20 nM;
b. FLINT/flag at 20 nM+GST/flag or mFLINT or HVEM at 200 nM;
c. FLINT/flag at 20 nM+HVEM+anti-human FAS ligand at 200 n-M;
d. anti-human FAS ligand-biotin at 1 μg/ml
Cells were incubated on ice for 30 minutes and washed with PBS/BSA, 0.1%. Cells then were exposed either to anti-human IgG-biotin, 1 μg/ml (for detection of HVEM), or to M2-biotin, 2 μg/ml (for detection of flag conjugates). Cells were incubated on ice for 30 minutes and washed with PBS/BSA, 0.1%. Thereafter, cells were exposed to streptavidin Alexa 488 (SIGMA) at a 1:1000 dilution. Again, cells were incubated on ice for 30 minutes and washed with PBS/BSA, 0.1 1%. Cells were analyzed using a FACSORT flow cytometer (Decton Dickinson) to determine binding.
(Flow cytometry measures light scatter and fluorescence of single cells or particles in a stream.)

In test [7] the target is T1, FasL (Homo sapiens, UniProt P48023).
T1 construct: purchased Kamiya Biomedical Company
T1 sequence (P48023 130-281 limits assumed): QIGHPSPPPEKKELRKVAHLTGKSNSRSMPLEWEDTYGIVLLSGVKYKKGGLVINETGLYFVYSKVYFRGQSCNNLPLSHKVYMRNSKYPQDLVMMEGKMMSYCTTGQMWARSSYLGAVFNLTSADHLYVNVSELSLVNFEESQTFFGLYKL
Nature of the test: BiaCore real-time biomolecular interaction analysis (surface plasmon resonance). In kind it is binding. The note with it: immobilized FasL (monomer bound), analyte in solution. An excerpt: FLINT-Fas L binding may be confirmed and specifics of binding determined (e.g., kinetics, specificity, affinity, cooperativity, relative binding pattern, concentration) using real-time biomolecular interaction analysis. This technology confers the ability to study biomolecular interactions in real time, without labeling any of the interactants. In particular, it takes advantage of the optical phenomenon surface plasmon resonance, and detection depends on changes in the mass concentration of macromolecules at the biospecific interface. Interactions are followed in real time, so that kinetic information is readily derived. In many cases, investigations can be performed without prior purification of components.
Measurements are accomplished using a BiaCore 2000 instrument. The instrument, accompanying chips, immobilization and maintenance kits and buffers are obtained from Biacore AB, Rapsgatan 7, S-754 50 Uppsala, Sweden. FasL is obtained from Kamiya Biomedical Company, 910 Industry Drive, Seattle, Wash. 98188, Guanidine Isothiocyanate Solution from GibcoBRL, and mFLINT is prepared as in Examples 8 and 9.
Experiments using immobilized FasL loaded with a solution containing mFLINT. […] This is explained by the fact that FasL is a trimer, yet here FasL monomer was bound. Further experiments utilized bound FLINT with FasL in solution, allowing for trimer formation. […] This observations indicate that FLINT should effectively compete with Fas for FasL binding, which likely explains the therapeutic benefit observed in experiments detailed below.
For orientation: SPR reads the build-up and loss of mass on a sensor chip optically.

The target of test [8] is T2, hFasLigand (Flag-tagged) (Homo sapiens, UniProt P48023).
T2 sequence (P48023 103-281 limits assumed): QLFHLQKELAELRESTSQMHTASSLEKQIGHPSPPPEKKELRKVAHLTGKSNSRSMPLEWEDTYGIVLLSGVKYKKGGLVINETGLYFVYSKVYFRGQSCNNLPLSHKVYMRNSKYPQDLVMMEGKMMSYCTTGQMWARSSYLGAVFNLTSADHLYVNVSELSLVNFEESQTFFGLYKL
In words: ELISA: FasLigand binding to adsorbed FLINT and Fas. The note with it: 100 ng receptor adsorbed. As for the experimental part: FLINT and Fas (100 ng of each) were adsorbed on to an ELISA plate. hFasLigand (Flag-tagged) was added at different concentrations to a maximum concentration of 300 ng down to 0.1 ng on TBST plus a 0.1% solution containing 1 microgram/ml of M2 Abs. After washing of the plate, anti-mouse-Abs-HRP (1:3000 dilution, Bio-Rad) was added to the wells. After washings, visualization enzymatic reaction using ABTS as a substrate was performed.
A general note: ELISA stands for enzyme-linked immunosorbent assay.

Test [9] relates to Mouse T cell hybridoma cells (LTT cells). Nature of the test: Murine FasL-mediated apoptosis of LTT cells (MTS cytotoxicity assay). In kind it is cell-based. The note with it: test agent 1 μg/ml. As for the experimental part: (§1) LTT,2,14,11 cells (LTT cells), see Glasebrook, Eur.J.Immunol. 17: 1561-65 (1987), were used in this Annexin V assay. On the first day, a 96 well plate was coated with anti-CD3 (2C11) at a serial dilutions. On the second day, 100,000 LTT cells were added, in 50 μl of medium per well, along with 50 μl of medium to the control wells and 50 μl of medium containing:
The same steps as in Example 16 were followed on Day 1 and Day 2. On Day 3 20 ul of MTS solution (Promega) was added to the cells which were then incubated at 37° C. for 2 hours. Using a plate reader, the absorbances at 490 nm wavelength were collected.

Test [10] shares this test system. Nature of the test: Murine FasL-mediated apoptosis of LTT cells (Annexin V assay). In kind it is cell-based. The following applies: test agent 1 μg/ml. On the procedure:
as §1
Group 1. solubleFas (sFas)(FasFc, mouse), with a final concentration of 1 μg/ml
Group 2. mFLINT (human), with a final concentration of 1 ug/ml
Group 3. anti-FasL (mouse), with a final concentration of 1 ug/ml.
These then were incubated overnight, at 37° C., in 5% CO2;
On the following day (Day 3), the cells were collected from each well, washed and labeled with Annexin V and PI, following Flow cytometry analysis.

Several values for one entry are separate records, joined by “and”; a condition that tells them apart may be missing. Equal entries are not always repeated.

OPG2-Fc (Fc fusion): the apoptosis of Jurkat cells, Annexin V and PI (FACS) in test [1] was determined as 70.6. Further, the apoptosis of Jurkat cells in test [2] stood at 26.2. Moreover, the apoptosis of Jurkat cells, positive staining with Annexin V (FACS) in test [3] is 45.8.

On to DEVD-cmk [DEVDcmk, reference compound], for which the “Cell apoptosis (positive staining with Annexin V)” value in test [4] is 30.80.

B1: TRAIL: TNF ligand TRAIL (RnD Systems) (protein, UniProt P50591 1-281, looked up)
Tumor necrosis factor ligand …: MAMMEVQGGPSLGQTCVLIVIFTVLLQSLCVAVTYVYFTNELKQMQDKYSKSGIACFLKEDDSYWDPNDEESMNSPCWQVKWQLRQLVRKMILRTSEETISTVQEKQQNISPLVRERGPQRVAAHITGTRGRSNTLSSPNSKNEKALGRKINSWESSRSGHSFLSNLHLRNGELVIHEKGFYYIYSQTYFRFQEEIKENTKNDKQMVQYIYKYTSYPDPILLMKSARNSCWSKDAEYGLYSIYQGGIFELKENDRIFVSVTNEHLIDMDHEASFFGAFLVG
With B1, in test [5], the “Cell apoptosis (Annexin V and PI, FACS)” value is 17.47 and 17.43.

B2: mFLINT-Flag: FLINT with the Flag sequence attached at the C-terminal end: [FLINT]-DYKDDDDK (protein)
chain: VAETPTYPWRDAETGERLVCAQCPPGTFVQRPCRRDSPTTCGPCPPRHYTQFWNYLERCRYCNVLCGEREEEARACHATHNRACRCRTGFFAHAGFCLEHASCPPGAGVIAPGTPSQNTQCQPCPPGTFSASSSSSEQCQPHRNCTALGLALNVPGSSSHDTLCTSCTGFPLSTRVPGAEECERAVIDFVAFQDISIKRLQRLLQALEAPEGWGPTPRAGRAALQLKLRRRLTELLGAQDGALLVRLLQALRVARMPGLERSVRERFLPVHDYKDDDDK
Consider B2, for which the “cell surface binding (flow cytometry peak shift)” value in [6] (LIGHT-transfected 293 cells) is recorded as “peaks shifted only when LIGHT expressing cells were stained with mFLINT-Flag”; in test [6] (vector transfected control cells), “no shift in the control cells”.

B3: Fas: Fas receptor protein adsorbed on ELISA plate or compared in BiaCore (protein, UniProt P25446 22-169, looked up)
extracellular domain: QGTNSISESLKLRRRVRETDKNCSEGLYQGGPFCCQPCQPGKKKVEDCKMNGGTPTCAPCTEGKEYMDKNHYADKCRRCTLCDEEHGLEVETNCTLTQNTKCKCKPDFYCDSPGCEHCVRCASCEHGTLEPCTATSNTNCRKQSPRNR
modifications: extracellular domain
notes: Fas receptor protein adsorbed on ELISA plate or compared in BiaCore
A word on the Kd: it is a measure of binding affinity in units of concentration. B3 showed a Kd in test [7] of 162 nM. For the same molecule, the “OD, 405 nM” value is 0 in test [8] (FasL 0.1 ng); 0 in test [8] (FasL 0.5 ng); 0 in [8] (FasL 1.0 ng); “.01” in test [8] (FasL 5.0 ng); “.03” in test [8] (FasL 10 ng); “.045” in test [8] (FasL 50 ng). Further, the “OD, 405 nM” value in [8] (FasL 100 ng) is “.18”.

B4: SFas: solubleFas (sFas)(FasFc, mouse) (protein)
chain: QGTNSISESLKLRRRVRETDKNCSEGLYQGGPFCCQPCQPGKKKVEDCKMNGGTPTCAPCTEGKEYMDKNHYADKCRRCTLCDEEHGLEVETNCTLTQNTKCKCKPDFYCDSPGCEHCVRCASCEHGTLEPCTATSNTNCRKQSPRNR
On to B4, for which the “MTS absorbance at 490 nm” value is 1.774 in [9] (Anti CD3 conc. 0 μg/ml); 1.968 in test [9] (Anti CD3 conc. 0.0014 μg/ml); 1.929 in [9] (Anti CD3 conc. 0.004 μg/ml); 1.779 in [9] (Anti CD3 conc. 0.012 μg/ml); 1.777 in [9] (Anti CD3 conc. 0.037 μg/ml); 1.638 in [9] (Anti CD3 conc. 0.11 μg/ml). Further, the entries for the “MTS absorbance at 490 nm” value in [9] (Anti CD3 conc. 0.33 μg/ml) and in [9] (Anti CD3 conc. 1 μg/ml) were 1.624 and 1.459, respectively. Moreover, the “% Annexin V Positive” value in test [10] (Anti CD3 0) came to 23.14%; in [10] (Anti CD3 0.11), 41.08%; in test [10] (Anti CD3 0.33) it was 47.28%; in [10] (Anti CD3 1), 56.66%.

For the origin of these results see patent US20040167074A1, “Therapeutic applications of mFLINT polypeptides” (priority 1998, published 2004).
